# Data: the DeepSol protein solubility set
# Experiment: soluble on expression in E. coli; label from the status in PepcDB or PDB records
row,Sequence,soluble on expression in E. coli
1,GSHMSGKARLHYPVTRQGEQVDHYFGQAVADPYRWLEDDRSPETEAWVKAQNAVTQDYLAQIPYRAAIKEKLAASWNYAKEGAPFREGRYHYFFKNDGLQNQNVLWRQQEGKPAEVFLDPNTLSPDGTTALDQLSFSRDGRILAYSLSLAGSDWREIHLMDVESKQPLETPLKDVKFSGISWLGNEGFFYSSYDKPDGSELSARTDQHKVYFHRLGTAQEDDRLVFGAIPAQHHRYVGATVTEDDRFLLISAANSTSGNRLYVKDLSQENAPLLTVQGDLDADVSLVDNKGSTLYLLTNRDAPNRRLVTVDAANPGPAHWRDLIPERQQVLTVHSGSGYLFAEYMVDATARVEQFDYEGKRVREVALPGLGSVSGFNGKHDDPALYFGFENYAQPPTLYRFEPKSGAISLYRASAAPFKPEDYVSEQRFYQSKDGTRVPLIISYRKGLKLDGSNPTILYGYGGFDVSLTPSFSVSVANWLDLGGVYAVANLRGGGEYGQAWHLAGTQQNKQNVFDDFIAAAEYLKAEGYTRTDRLAIRGGSNGGLLVGAVMTQRPDLMRVALPAVGVLDMLRYHTFTAGTGWAYDYGTSADSEAMFDYLKGYSPLHNVRPGVSYPSTMVTTADHNDRVVPAHSFKFAATLQADNAGPHPQLIRIETNAGHGAGTPVAKLIEQSADIYAFTLYEMGYRELPRQP,soluble
2,GSHMTREMRILILGLDGAGKTTILYRLQVGEVVTTIPTIGFNVETVTYKNLKFQVWDLGGLTSIRPYWRCYYSNTDAVIYVVDSCDRDRIGISKSELVAMLEEEELRKAILVVFANKQDMEQAMTSSEMANSLGLPALKDRKWQIFKTSATKGTGLDEAMEWLVETLKSRQ,soluble
3,GSHSMRYFYTAVSRPGRGEPHFIAVGYVDDTQFVRFDSDAASPRGEPRAPWVEQEGPEYWDRETQKYKRQAQTDRVSLRNLRGYYNQSEAGSHIIQRMYGCDVGPDGRLLRGYDQYAYDGKDYIALNEDLRSWTAADTAAQITQRKWEAAREAEQLRAYLEGLCVEWLRRYLKNGKETLQRAEHPKTHVTHHPVSDHEATLRCWALGFYPAEITLTWQWDGEDQTQDTELVETRPAGDGTFQKWAAVVVPSGEEQRYTCHVQHEGLPEPLTLRWEPSS,soluble
4,GSKKSRLWVDRSGTFKVDAEFIGCAKGKIHLHKANGVKIAVAADKLSNEDLAYVEKITGFSLEKFKAN,soluble
5,GSLSLIRKKGFYKQDVNKTAWELPKTYVSPTHVGSGAYGSVCSAIDKRSGEKVAIKKLSRPFQSEIFAKRAYRELLLLKHMQHENVIGLLDVFTPASSLRNFYDFYLVMPFMQTDLQKIMGMEFSEEKIQYLVYQMLKGLKYIHSAGVVHRDLKPGNLAVNEDCELKILDFGLARHADAEMTGYVVTRWYRAPEVILSWMHYNQTVDIWSVGCIMAEMLTGKTLFKGKDYLDQLTQILKVTGVPGTEFVQKLNDKAAKSYIQSLPQTPRKDFTQLFPRASPQAADLLEKMLELDVDKRLTAAQALTHPFFEPFRDPEEETEAQQPFDDSLEHEKLTVDEWKQHIYKEIVNFSPIARKDSRV,soluble
6,GSMENTDVFLGLHDFLERMRKPSAGDFVKSIKSFIVSFSNNAPDPEKDCAMVQEFFSKMEAAFRAHPLWSGCSEEELDSAGDGLEKYVMTKLFTRVFASNTEEVIADEKLFQKMSLVQQFISPENLDIQPTFQNESSWLLAQKELQKINMYKAPRDKLVCILNCCKVINNLLLNASIASNENAPGADEFLPVLIYVTIKANPPQLHSNLLYIQRYRRESKLVGEAAYFFTNILSAESFISNIDAKSISLDEAEFEKNMESARARISG,soluble
7,GSMPKPINVRVTTMDAELEFAIQPNTTGKQLFDQVVKTVGLREVWFFGLQYVDSKGYSTWLKLNKKVTQQDVKKENPLQFKFRAKFFPEDVSEELIQEITQRLFFLQVKEAILNDEIYCPPETAVLLASYAVQAKYGDYNKEIHKPGYLANDRLLPQRVLEQHKLTKEQWEERIQNWHEEHRGMLREDSMMEYLKIAQDLEMYGVNYFEIKNKKGTELWLGVDALGLNIYEHDDKLTPKIGFPWSEIRNISFNDKKFVIKPIDKKAPDFVFYAPRLRINKRILALCMGNHELYMRRRKPDTIEVQQMKAQARVDSSGRIVTD,soluble
8,GSPNSTAEPTVAARPQQIDALRTLIRLGSLHTPMVVRTAATLRLVDHILAGARTVKALAARTDTRPEALLRLIRHLVAIGLLEEDAPGEFVPTEVGELLADDHPAAQRAWHDLTQAVARADISFTRLPDAIRTGRPTYESIYGKPFYEDLAGRPDLRASFDSLLACDQDVAFDAPAAAYDWTNVRHVLDVGGGKGGFAAAIARRAPHVSATVLEMAGTVDTARSYLKDEGLSDRVDVVEGDFFEPLPRKADAIILSFVLLNWPDHDAVRILTRCAEALEPGGRILIHERDDLHENSFNEQFTELDLRMLVFLGGALRTREKWDGLAASAGLVVEEVRQLPSPTIPYDLSLLVLAPAATGA,soluble
9,GSRAQSSPAAPASLSAPEPASQARVLSSSETPARTLPFTTGLIYDSVMLKHQCSCGDNSRHPEHAGRIQSIWSRLQERGLRSQCECLRGRKASLEELQSVHSERHVLLYGTNPLSRLKLDNGKLAGLLAQRMFVMLPCGGVGVDTDTIWNELHSSNAARWAAGSVTDLAFKVASRELKNGFAVVRPPGHHADHSTAMGFCFFNSVAIACRQLQQQSKASKILIVDWDVHHGNGTQQTFYQDPSVLYISLHRHDDGNFFPGSGAVDEVGAGSGEGFNVNVAWAGGLDPPMGDPEYLAAFRIVVMPIAREFSPDLVLVSAGFDAAEGHPAPLGGYHVSAKCFGYMTQQLMNLAGGAVVLALEGGHDLTAICDASEACVAALLGNRVDPLSEEGWKQKPNLNAIRSLEAVIRVHSKYWGCMQRLAS,soluble
10,GSRRASVGSHEVEKSGLLNMTKIAQGGRKLRKNWGPSWVVLTGNSLVFYREPPPTAPSSGWGPAGSRPESSVDLRGAALAHGRHLSSRRNVLHIRTIPGHEFLLQSDHETELRAWHRALRTVIERLVRW,soluble
11,GSSGSSGGYFDAHALAMDYRSLGFRECLAEVARYLSIIEGLDASDPLRVRLVSHLNNYASQREASGPSSG,soluble
12,GSSMKASSGDQGSPPCFLRFPRPVRVVSGAEAELKCVVLGEPPPVVVWEKGGQQLAASERLSFPADGAEHGLLLTAALPTDAGVYVCRARNAAGEAYAAAAVTVLEPPA,soluble
13,GSSPQREPQRVSHEQFRAALQLVVDPGDPRSYLDNFIKIGEGSTGIVCIATVRSSGKLVAVKKMDLRKQQRRELLFNEVVIMRDYQHENVVEMYNSYLVGDELWVVMEFLEGGALTDIVTHTRMNEEQIAAVCLAVLQALSVLHAQGVIHRDIKSDSILLTHDGRVKLSDFGFCAQVSKEVPRRKSLVGTPYWMAPELISRLPYGPEVDIWSLGIMVIEMVDGEPPYFNEPPLKAMKMIRDNLPPRLKNLHKVSPSLKGFLDRLLVRDPAQRATAAELLKHPFLAKAGPPASIVPLMRQNRTR,soluble
14,GSVRPVVGEIAANSIAAEAQIAPGTELKAVDGIETPDWDAVRLQMVDKIGDESTTITVAPFGSDQRRDVKLDLRHWAFEPDKEDPVSSLGIRPRGPQ,soluble
15,GVDWQDANSLQYVVQSAETLVPDVKPVAQAESVNRVNTGGEGLGGELRDQEYAIILETLVECNGRRKEMAEKLGISPRTLRYKLAKMRDAGIDIPS,not soluble
16,GWNECNDKLRDISRSFWRGDQGYLKEFATRLMGSRDIYSAANWPYKLTVNYITYHDGFTLQDLVSYKHKHNEANGEENRDGHGDNRSENYGVEGETENIMIIATREKQKRNLIASLLFAFGIPHILTADVLSHSQDGNNNAYCQDNKTSWINWSETERKAHFKTWMAQMVANRHQYMVPFIRAFSGENRNNNRIFWRRTDGRLMEHDDWNRLSSVALHLGIGKDGQELVYLINQTNATARFKLPNERNQEWVTICDTNVRNLNPGHAEGEVLLSPTSMVILHYQPKPNSPQGEQLQS,not soluble
17,GYQCQHNLNYWRFGDYLGIGCGSHGKLSFADGRIIRTTKVKHPRGYLAAYQNMVKPYLHTEQLVADEDRPFEFFMNRFRLMEACPKQDYVDTTGLPLSTIQDTIDWALEMGYLSETETHWQITEKGKLFLNDLLEAFMAEEDEE,not soluble
